Columns and labels:
[1] = Stability after thermochallenge (TM); format: physicochemical; settings: thermochallenge of supernatants
Description: iii. Stability. The humanized variants were tested for stability after challenge at high temperature. The approximate midpoints of the thermal unfolding transitions (TM) were determined for every humanized variant by subjecting the supernatants to temperatures ranging from 60 to 74° C. These temperatures were chosen based on the denaturation profile observed for the murine antibody molecule after thermochallenging between a broad range of temperatures between 50 and 80° C. The binding properties of each variant were determined before and after thermochallenge.

HUVECs = assay: HUVEC migration, Matrigel chemoinvasion assay; format: cell-based, human; settings: 1 uM S1P, 1 ug/ml antibody, 6 hr
Description: FIG. 5. FIG. 5 has two panels, A and B. In panel A, S1P is shown to promote neovascularization through induction of HUVECs tube formation and migration, which is reduced by SPHINGOMAB. […] The number of cells that migrated to the Matrigel membrane were counted in five independent fields.
Experiments were performed as described by Visentin et al. (Cancer Cell 2006 March; 9(3):225-38).

Swiss 3T3 fibroblasts = assay: S1P-stimulated fibroblast proliferation (3H-thymidine incorporation); format: cell-based; settings: 1 ug/mL antibody, 12-24 hr
Description: (§1) FIG. 7. […] See Example 7, below, for experimental details. […] In these experiments, fibroblasts were serum-starved and then treated with 0, 0.1, 0.5, or 1 μM S1P+/−1 μg/mL SPHINGOMAB for 12-24 hr. […] SPHINGOMAB neutralized each of these S1P effects. SPHINGOMAB reduced perivascular fibrosis in vivo in a murine model of a permanent myocardial infarction (E).
(§2) S1P makes profound contributions to wound healing by activating fibroblast migration, proliferation and collagen production; SPHINGOMAB neutralizes these effects. Several studies using multiple types of fibroblasts confirm S1P's ability to promote wound healing: 1) S1P increased Swiss-3T3 fibroblast proliferation as measured by ^3H-thymidine incorporation using standard methods (FIG. 7A); 2) S1P promoted the migration of cardiac fibroblasts in a standard scratch wound healing assay. […] In each of these assays, SPHINGOMAB neutralized S1P's. It is anticipated that ocular fibroblasts would respond similarly to S1P and SPHINGOMAB.

[2] = system: cardiac fibroblasts from transgenic mice expressing collagen-GFP; assay: S1P-stimulated collagen gene expression (collagen-GFP reporter); format: cell-based, mouse; settings: 1 ug/mL antibody, 12-24 hr
Description: as §1, §2

[3] = system: CNV lesions after laser rupture of Bruch's membrane; assay: CNV animal model of AMD, murine vs humanized mAbs (Example 17); format: in vivo, mouse; settings: 0.5 ug intravitreal Day 0 and Day 6, 14 days post laser
Description: The humanized antibody variants and the murine antibody were compared for their ability to inhibit neo-vascularization in the CNV animal model of AMD as shown in FIG. 13. […] Mice were sacrificed 14 days post laser surgery. Control mice were treated with aqueous buffer (PBS) or an isotype-matched non-specific antibody. Three of the humanized variants inhibited angiogenesis essentially equivalently to the murine antibody as assessed by measurement of CNV area. CNV lesion volumes are represented as means±SEM. […]
The morphometric and volumetric CNV lesions were measured as follows. […]
Captured digital images were evaluated morphometrically using ImageJ software (Research Services Branch, National Institutes of Health, Bethesda, Md.). Images were split into separate RGB channels for analysis of the red and green channels as follows: 1) a calibration for the specific objective and microscope was applied to set the pixel-to-length ratio; 2) a threshold was applied using the Otsu algorithm; 3) images will be made binary; 4) a region-of-interest (ROI) was outlined to include the entire lesion area; 5) a particle analysis was performed to quantify the pixel area above the threshold level within the ROI. […]

B1: LT1002: murine anti-S1P monoclonal antibody, IgG1 kappa, hybridoma clone 306D326.26 (antibody, listed as Mus sp., V domains shown)
VH: QAHLQQSDAELVKPGASVKISCKVSGFIFIDHTIHWMKQRPEQGLEWIGCISPRHDITKYNEMFRGKATLTADKSSTTAYIQVNSLTFEDSAVYFCARGGFYGSTIWFDFWGQGTTLTVS
VL: ETTVTQSPASLSMAIGEKVTIRCITTTDIDDDMNWFQQKPGEPPNLLISEGNILRPGVPSRFSSSGYGTDFLFTIENMLSEDVADYYCLQSDNLPFTFGSGTKLEIK
**Q.** Which results are given for B1?
**A.** TM (approximate midpoint of thermal unfolding transition) [1]: 65 °C; S1P-induced HUVEC tube formation and migration (HUVECs): reduced; S1P-stimulated Swiss 3T3 fibroblast proliferation (Swiss 3T3 fibroblasts): neutralized; S1P-promoted collagen expression [2]: neutralized; Percent inhibition of lesion size [3]: approximately 80%
